Measured values taken from the supplement of paper PMC5998384.

Columns and labels:
HeLa Kyoto [1] = assay: solubility in G1/S (NP-40 vs SDS abundance) (log2 ratio); higher = more soluble; conditions: cell cycle stage: G1/S
HeLa Kyoto [2] = assay: solubility change mitosis vs G1/S (difference of NP-40 vs SDS log2 ratios) (log2 ratio difference); higher = more soluble in mitosis
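Wherever solubility change mitosis vs G1/S (difference of NP-40 vs SDS log2 ratios) is given: synchronized HeLa Kyoto cells (double thymidine block for G1/S, nocodazole release for mitosis), protein amounts in NP-40 versus SDS lysates quantified by mass spectrometry, three biological replicates.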
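Wherever solubility in G1/S (NP-40 vs SDS abundance) is given: HeLa Kyoto cells arrested at G1/S by double thymidine block, proteins quantified by TMT10plex mass spectrometry in mild NP-40 versus SDS extracts, three biological replicates.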

Substance | solubility in G1/S (log2) (HeLa Kyoto [1]) | solubility change mitosis (log2) (HeLa Kyoto [2])
MHGHGGYDSDFSDDERCGESSKRKKRTVEDDLLLQKPFQKEKHGKVAHKQVAAELLDREEARNRRFHLIAMDAYQRHTKFVNDYILYYGGKKEDFKRLGENDKTDLDVIRENHRFLWNEEDEMDMTWEKRLAKKYYDKLFKEYCIADLSKYKENKFGFRWRVEKEVISGKGQFFCGNKYCDKKEGLKSWEVNFGYIEHGEKRNALVKLRLCQECSIKLNFHHRRKEIKSKKRKDKTKKDCEESSHKKSRLSSAEEASKKKDKGHSSSKKSEDSLLRNSDEEESASESELWKGPLPETDEKSQEEEFDEYFQDLFL [FRA10AC1] | -0.47 | 0.365
MHPGGGPSRAERLELGLGRERPAKAIFLHRRPGEGGGRERCLRCGHVCVRRGPGPREAVPSGRPRPDTLTPPWVRQRAVTGTFCASWTPLRNRRAQRMATDMQRKRSSECLDGTLTPSDGQSMERAESPTPGMAQGMEPGAGQEGAMFVHARSYEDLTESEDGAASGDSHKEGTRGPPPLPTDMRQISQDFSELSTQLTGVARDLQEEMLPGSSEDWLEPPGAVGRPATEPPREGTTEGDEEDATEAWRLHQKHVFVLSEAGKPVYSRYGSEEALSSTMGVMVALVSFLEADKNAIRSIHADGYKVVFVRRSPLVLVAVARTRQSAQELAQELLYIYYQILSLLTGAQLSHIFQQKQNYDLRRLLSGSERITDNLLQLMARDPSFLMGAARCLPLAAAVRDTVSASLQQARARSLVFSILLARNQLVALVRRKDQFLHPIDLHLLFNLISSSSSFREGEAWTPVCLPKFNAAGFFHAHISYLEPDTDLCLLLVSTDREDFFAVSDCRRRFQERLRKRGAHLALREALRTPYYSVAQVGIPDLRHFLYKSKSSGLFTSPEIEAPYTSEEEQERLLGLYQYLHSRAHNASRPLKTIYYTGPNENLLAWVTGAFELYMCYSPLGTKASAVSAIHKLMRWIRKEEDRLFILTPLTY [MON1A] | 0.0361 | -0.081
MICALL2 | 0.151 | -0.0133
MIEVVCNDRLGKKVRVKCNTDDTIGDLKKLIAAQTGTRWNKIVLKKWYTIFKDHVSLGDYEIHDGMNLELYYQ [UBL5] | -1.06 | 0.566
MISAPDVVAFTKEEEYEEEPYNEPALPEEYSVPLFPFASQGANPWSKLSGAKFSRDFILISEFSEQVGPQPLLTIPNDTKVFGTFDLNYFSLRIMSVDYQASFVGHPPGSAYPKLNFVEDSKVVLGDSKEGAFAYVHHLTLYDLEARGFVRPFCMAYISADQHKIMQQFQELSAEFSRASECLKTGNRKAFAGELEKKLKDLDYTRTVLHTETEIQKKANDKGFYSSQAIEKANELASVEKSIIEHQDLLKQIRSYPHRKLKGHDLCPGEMEHIQDQASQASTTSNPDESADTDLYTCRPAYTPKLIKAKSTKCFDKKLKTLEELCDTEYFTQTLAQLSHIEHMFRGDLCYLLTSQIDRALLKQQHITNFLFEDFVEVDDRMVEKQESIPSKPSQDRPPSSSLEECPIPKVLISVGSYKSSVESVLIKMEQELGDEEYKEVEVTELSSFDPQENLDYLDMDMKGSISSGESIEVLGTEKSTSVLSKSDSQASLTVPLSPQVVRSKAVSHRTISEDSIEVLSTCPSEALIPDDFKASYPSAINEEESYPDGNEGAIRFQASISPPELGETEEGSIENTPSQIDSSCCIGKESDGQLVLPSTPAHTHSDEDGVVSSPPQRHRQKDQGFRVDFSVENANPSSRDNSCEGFPAYELDPSHLLASRDISKTSLDNYSDTTSYVSSVASTSSDRIPSAYPAGLSSDRHKKRAGQNALKFIRQYPFAHPAIYSLLSGRTLVVLGEDEAIVRKLVTALAIFVPSYGCYAKPVKHWASSPLHIMDFQKWKLIGLQRVASPAGAGTLHALSRYSRYTSILDLDNKTLRCPLYRGTLVPRLADHRTQIKRGSTYYLHVQSMLTQLCSKAFLYTFCHHLHLPTHDKETEELVASRQMSFLKLTLGLVNEDVRVVQYLAELLKLHYMQESPGTSHPMLRFDYVPSFLYKI [SMCR8] | -0.0823 | 0.0252
MKDVDNLKSIKEEWVCETGSDNQPLGNNQQSNCEYFVDSLFEEAQKVSSKCVSPAEQKKQVDVNIKLWKNGFTVNDDFRSYSDGASQQFLNSIKKGELPSELQGIFDKEEVDVKVEDKKNEICLSTKPVFQPFSGQGHRLGSATPKIVSKAKNIEVENKNNLSAVPLNNLEPITNIQIWLANGKRIVQKFNITHRVSHIKDFIEKYQGSQRSPPFSLATALPVLRLLDETLTLEEADLQNAVIIQRLQKTASFRELSEH [UBXN2A] | 0.0566 | 0.0265
MKFVYKEEHPFEKRRSEGEKIRKKYPDRVPVIVEKAPKARIGDLDKKKYLVPSDLTVGQFYFLIRKRIHLRAEDALFFFVNNVIPPTSATMGQLYQEHHEEDFFLYIAYSDESVYGL [GABARAP] | 0.16 | -0.0822
MKLHYVAVLTLAILMFLTWLPESLSCNKALCASDVSKCLIQELCQCRPGEGNCSCCKECMLCLGALWDECCDCVGMCNPRNYSDTPPTSKSTVEELHEPIPSLFRALTEGDTQLNWNIVSFPVAEELSHHENLVSFLETVNQPHHQNVSVPSNNVHAPYSSDKEHMCTVVYFDDCMSIHQCKISCESMGASKYRWFHNACCECIGPECIDYGSKTVKCMNCMF [TWSG1] | 0.0362 | -0.383
MKRVNSCVKSDEHVLEELETEGERQLKSLLQHQLDTSVSIEECMSKKESFAPGTMYKPFGKEAAGTMTLSQFQTLHEKDQETASLRELGLNETEILIWKSHVSGEKKTKLRATPEAIQNRLQDIEERISERQRILCLPQRFAKSKQLTRREMEIEKSLFQGADRHSFLKALYYQDEPQKKNKGDPMNNLESFYQEMIMKKRLEEFQLMRGEPFASHSLVSATSVGDSGTAESPSLLQDKGKQAAQGKGPSLHVANVIDFSPEQCWTGPKKLTQPIEFVPEDEIQRNRLSEEEIRKIPMFSSYNPGEPNKVLYLKNLSPRVTERDLVSLFARFQEKKGPPIQFRMMTGRMRGQAFITFPNKEIAWQALHLVNGYKLHGKILVIEFGKNKKQRSNLQATSLISCATGSTTEISGS [RBM41] | -0.192 | -0.0432
MLGTLRAMEGEDVEDDQLLQKLRASRRRFQRRMQRLIEKYNQPFEDTPVVQMATLTYETPQGLRIWGGRLIKERNEGEIQDSSMKPADRTDGSVQAAAWGPELPSHRTVLGADSKSGEVDATSDQEESVAWALAPAVPQSPLKNELRRKYLTQVDILLQGAEYFECAGNRAGRDVRVTPLPSLASPAVPAPGYCSRISRKSPGDPAKPASSPREWDPLHPSSTDMALVPRNDSLSLQETSSSSFLSSQPFEDDDICNVTISDLYAGMLHSMSRLLSTKPSSIISTKTFIMQNWNSRRRHRYKSRMNKTYCKGARRSQRSSKENFIPCSEPVKGTGALRDCKNVLDVSCRKTGLKLEKAFLEVNRPQIHKLDPSWKERKVTPSKYSSLIYFDSSATYNLDEENRFRTLKWLISPVKIVSRPTIRQGHGENRQREIEIRFDQLHREYCLSPRNQPRRMCLPDSWAMNMYRGGPASPGGLQGLETRRLSLPSSKAKAKSLSEAFENLGKRSLEAGRCLPKSDSSSSLPKTNPTHSATRPQQTSDLHVQGNSSGIFRKSVSPSKTLSVPDKEVPGHGRNRYDEIKEEFDKLHQKYCLKSPGQMTVPLCIGVSTDKASMEVRYQTEGFLGKLNPDPHFQGFQKLPSSPLGCRKSLLGSTAIEAPSSTCVARAITRDGTRDHQFPAKRPRLSEPQGSGRQGNSLGASDGVDNTVRPGDQGSSSQPNSEERGENTSYRMEEKSDFMLEKLETKSV [HJURP] | -0.154 | 0.197
MLLGLAAMELKVWVDGIQRVVCGVSEQTTCQEVVIALAQAIGQTGRFVLVQRLREKERQLLPQECPVGAQATCGQFASDVQFVLRRTGPSLAGRPSSDSCPPPERCLIRASLPVKPRAALGCEPRKTLTPEPAPSLSRPGPAAPVTPTPGCCTDLRGLELRVQRNAEELGHEAFWEQELRREQAREREGQARLQALSAATAEHAARLQALDAQARALEAELQLAAEAPGPPSPMASATERLHQDLAVQERQSAEVQGSLALVSRALEAAERALQAQAQELEELNRELRQCNLQQFIQQTGAALPPPPRPDRGPPGTQGPLPPAREESLLGAPSESHAGAQPRPRGGPHDAELLEVAAAPAPEWCPLAAQPQAL [RASSF7] | 0.299 | 0.0497
MLLSVTSRPGISTFGYNRNNKKPYVSLAQQMAPPSPSNSTPNSSSGSNGNDQLSKTNLYIRGLQPGTTDQDLVKLCQPYGKIVSTKAILDKTTNKCKGYGFVDFDSPSAAQKAVTALKASGVQAQMAKQQEQDPTNLYISNLPLSMDEQELEGMLKPFGQVISTRILRDTSGTSRGVGFARMESTEKCEAIITHFNGKYIKTPPGVPAPSDPLLCKFADGGPKKRQNQGKFVQNGRAWPRNADMGVMALTYDPTTALQNGFYPAPYNITPNRMLAQSALSPYLSSPVSSYQRVTQTSPLQVPNPSWMHHHSYLMQPSGSVLTPGMDHPISLQPASMMGPLTQQLGHLSLSSTGTYMPTAAAMQGAYISQYTPVPSSSVSVEESSGQQNQVAVDAPSEHGVYSFQFNK [RBMS2] | 0.474 | 0.0678
MLPEAGSLWLLKLLRDIQLAQFYWPILEELNVTRPEHFDFVKPEDLDGIGMGRPAQRRLSEALKRLRSGPKSKNWVYKILGGFAPEHKEPTLPSDSPRHLPEPEGGLKCLIPEGAVCRGELLGSGCFGVVHRGLWTLPSGKSVPVAVKSLRVGPEGPMGTELGDFLREVSVMMNLEHPHVLRLHGLVLGQPLQMVMELAPLGSLHARLTAPAPTPPLLVALLCLFLRQLAGAMAYLGARGLVHRDLATRNLLLASPRTIKVADFGLVRPLGGARGRYVMGGPRPIPYAWCAPESLRHGAFSSASDVWMFGVTLWEMFSGGEEPWAGVPPYLILQRLEDRARLPRPPLCSRALYSLALRCWAPHPADRPSFSHLEGLLQEAGPSEACCVRDVTEPGALRMETGDPITVIEGSSSFHSPDSTIWKGQNGRTFKVGSFPASAVTLADAGGLPATRPVHRGTPARGDQHPGSIDGDRKKANLWDAPPARGQRRNMPLERMKGISRSLESVLSLGPRPTGGGSSPPEIRQARAVPQGPPGLPPRPPLSSSSPQPSQPSRERLPWPKRKPPHNHPMGMPGARKAAALSGGLLSDPELQRKIMEVELSVHGVTHQECQTALGATGGDVVSAIRNLKVDQLFHLSSRSRADCWRILEHYQWDLSAASRYVLARP [TNK1] | 0.0271 | -0.0434
MLRWTRAWRLPREGLGPHGPSFARVPVAPSSSSGGRGGAEPRPLPLSYRLLDGEAALPAVVFLHGLFGSKTNFNSIAKILAQQTGRRVLTVDARNHGDSPHSPDMSYEIMSQDLQDLLPQLGLVPCVVVGHSMGGKTAMLLALQRPELVERLIAVDISPVESTGVSHFATYVAAMRAINIADELPRSRARKLADEQLSSVIQDMAVRQHLLTNLVEVDGRFVWRVNLDALTQHLDKILAFPQRQESYLGPTLFLLGGNSQFVHPSHHPEIMRLFPRAQMQTVPNAGHWIHADRPQDFIAAIRGFLV [ABHD11] | 0.492 | 0.0439
MMAGCGEIDHSINMLPTNRKANESCSNTAPSLTVPECAICLQTCVHPVSLPCKHVFCYLCVKGASWLGKRCALCRQEIPEDFLDKPTLLSPEELKAASRGNGEYAWYYEGRNGWWQYDERTSRELEDAFSKGKKNTEMLIAGFLYVADLENMVQYRRNEHGRRRKIKRDIIDIPKKGVAGLRLDCDANTVNLARESSADGADSVSAQSGASVQPLVSSVRPLTSVDGQLTSPATPSPDASTSLEDSFAHLQLSGDNTAERSHRGEGEEDHESPSSGRVPAPDTSIEETESDASSDSEDVSAVVAQHSLTQQRLLVSNANQTVPDRSDRSGTDRSVAGGGTVSVSVRSRRPDGQCTVTEV [RNF146] | -0.244 | -0.158
